{"source": "patent US20260184815A1", "about": "(published 2026)", "binders": {"B1": {"name": "M209-C12 (Fab, V domains shown)", "VH": "EVQLLESGGGLVQPGGSLRLSCAASGFTFSHYLMTWVRQAPGKGLEWVSYISPSGGHTIYADSVKGRFTISRDNSKNTLYLQMNSLRAEDTAVYYCARVGRGIAARSRTSQLDYWGQGTLVTVSS", "VL": "DIQMTQSPGTLSLSPGERATLSCRTSQFVNSNYLAWYQQTPGQAPRLLIYGASSRATGIPDRFSGTGYGTDFTLTISRLEPEDYGTYYCQQSSRTPWTFGQGTRVEIK"}, "B2": {"name": "M209-D03 (Fab, V domains shown)", "VH": "B1 VH with Q111F, L112F, Y114Q", "VL": "B1 VL"}, "B3": {"name": "M9-A08 (Fab, V domains shown)", "VH": "EVQLLESGGGLVQPGGSLRLSCAASGFTFSAYEMWWVRQAPGKGLEWVSYIGSSGGSTSYADSVKGRFTISRDNSKNTLYLQMNSLRAEDTAVYYCTGGNSSSFDAFDIWGQGTMVTVSS", "VL": "DIQMTQSPSSLSASVGDRVTVTCRASQRISTYLNWYQQKPGKAPKLLISGASSLQSGVPSRFSGSGSGTDFTLTISSLQPDDFATYYCQQSYNTPRTFGQGTKVEIR", "notes": "HC as printed runs into CH1"}, "B4": {"name": "M9-C08 (Fab, V domains shown)", "VH": "EVQLLESGGGLVQPGGSLRLSCAASGFTFSHYGMVWVRQAPGKGLEWVSYIVPSGGLTYYADSVKGRFTISRDNSKNTLYLQMNSLRAEDTAVYYCARVDYTGDGLGYWGQGTLVTVSS", "VL": "DIQMTQSPSSLSASVGDRVTITCRASQSISIYVNWYQQKPGKAPNLLIFAASSLQRGVPSRFSGSGSGADFTLTISSLQPEDFATYYCQQSFSTPLTFGGGTKVEIK", "notes": "HC as printed runs into CH1"}, "B5": {"name": "M197-G10 (Fab, V domains shown)", "VH": "EVQLLESGGGLVQPGGSLRLSCAASGFTFSVYAMRWVRQAPGKGLEWVSSIYPSGGKTWYADSVKGRFTISRDNSKNTLYTLQMNSLRAEDAVYYCAYRRTGIPRRDAFDIWGQGTMVTVSS", "VL": "DIQMTQSPSTLSASVGDRVTITCRASQSISSWLAWYQQKPGKAPNLLIYKASTLESGVPSRFSGSGSGTEFTLTISSLQPDDFATYYCQQYNTYWTFGQGTKVEIK"}, "B6": {"name": "M198-A01 (Fab, V domains shown)", "VH": "EVQLLESGGGLVQPGGSLRLSCAASGFTFSPYTMIWVRQAPGKGLEWVSSISSSGGMTPYADSVKGRFTISRDNSKNTLYLQMNSLRAEDTAVYYCAYRRTGIPRRDAFDIWGQGTMVTVSS", "VL": "B5 VL"}, "B7": {"name": "M201-F11 (Fab, V domains shown)", "VH": "B6 VH with P31H, T33I, I35M, S50G, S52Y, M57I, P59V, T101S", "VL": "B5 VL with P80Q, D81P, F83D, A84F, T85A, Y86T, C88Y, Q89C"}, "B8": {"name": "M6-D09 (antibody, V domains shown)", "VH": "EVQLLESGGGLVQPGGSLRLSCAASGFTFSFYYMVWVRQAPGKGLEWVSVIYPSGGITVYADSVKGRFTISRDNSKNTLYLQMNSLRAEDTAVYYCARDKWAVMPPYYYYAMDVWGQGTTVTVSS", "VL": "DIQMTQSPSSLSASVGDRVTITCRASQSIRNYLNWYQQKPGKAPNLLIYAASTLQSGVPARFSGSGSGTDFTLTISSLQPEDFATYYCQQLSGYPHTFGQGTKLEIK", "notes": "also called M06-D09; 559A-M06-D09"}}, "key": {"human plasma kallikrein [1]": {"target": "T1, human plasma kallikrein (human, UniProt P03952 20-390; P03952 391-638)", "assay": "cell-based or functional assay", "T1 sequence (P03952 20-390, chain 1 of 2)": "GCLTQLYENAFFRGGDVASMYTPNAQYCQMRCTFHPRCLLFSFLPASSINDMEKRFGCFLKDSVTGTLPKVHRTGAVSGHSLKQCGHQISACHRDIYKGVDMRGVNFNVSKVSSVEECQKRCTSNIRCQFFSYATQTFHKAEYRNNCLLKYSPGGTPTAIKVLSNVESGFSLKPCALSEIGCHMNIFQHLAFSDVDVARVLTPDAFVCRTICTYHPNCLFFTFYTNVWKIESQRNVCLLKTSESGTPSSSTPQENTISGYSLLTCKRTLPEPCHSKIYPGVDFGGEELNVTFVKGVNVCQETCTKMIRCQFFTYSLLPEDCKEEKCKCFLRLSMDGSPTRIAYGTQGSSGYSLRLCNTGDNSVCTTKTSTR", "T1 sequence (P03952 391-638, chain 2 of 2)": "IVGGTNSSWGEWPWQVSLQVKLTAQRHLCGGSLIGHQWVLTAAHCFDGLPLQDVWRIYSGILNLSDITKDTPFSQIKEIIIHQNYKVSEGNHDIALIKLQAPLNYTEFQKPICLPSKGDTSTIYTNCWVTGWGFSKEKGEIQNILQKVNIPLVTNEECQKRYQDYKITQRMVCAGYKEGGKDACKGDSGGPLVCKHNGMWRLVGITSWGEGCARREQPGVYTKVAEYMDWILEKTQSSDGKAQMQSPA"}, "human plasma kallikrein [2]": {"target": "T2, human plasma kallikrein (human, UniProt P03952 20-390; P03952 391-638)", "T2 construct": "also called pKal; Human pKal", "assay": "ELISA, biotinylated pKal signal over streptavidin background", "excerpt": "Abbreviations used: “T/B” is the ELISA signal obtained using of the “target” (biotinylated plasma kallikrein) divided by the ELISA signal of the “background” (streptavidin); both of which were coated on microtiter plates, “nd” is not determined. The symbol “q” refers to the amber suppressible stop codon (TAG), which is translated as glutamine (Q) in strains of E. coli such as the TG1 cells that were used to express the Fab fragments.", "T2 sequence (P03952 20-390, chain 1 of 2)": "as the sequence (P03952 20-390, chain 1 of 2) above", "T2 sequence (P03952 391-638, chain 2 of 2)": "as the sequence (P03952 391-638, chain 2 of 2) above"}, "human plasma kallikrein [3]": {"target": "T1, human plasma kallikrein", "assay": "cell-based or functional assay", "remark": "listed apart in the source"}, "[4]": {"target": "T3, pKal catalytic domain Mutant 2 (human, UniProt P03952 391-638, limits assumed)", "T3 construct": "domain: catalytic domain; Expressed in Pichia pastoris, purified by IMAC; not shown: His tag fusion", "T3 sequence (P03952 other isoform, or with tags, fused parts or gaps mutant limits assumed)": "as the sequence (P03952 391-638, chain 2 of 2) above, with R161A, Q163A, Y165A, T168A, R170A counted along it", "assay": "enzyme inhibition, equilibrium Ki,app"}}, "note": "Where a chain is given by its changes, count along the chain named. Read-outs that look alike come from different tables or passages of the source."}
{"binder": "B1", "values": [{"measurement": "% inhibition at 10 nM", "setting": "human plasma kallikrein [1]", "result": 93.4, "unit": "%"}]}
{"binder": "B2", "values": [{"measurement": "% inhibition at 10 nM", "setting": "human plasma kallikrein [1]", "result": 80.4, "unit": "%"}]}
{"binder": "B3", "values": [{"measurement": "ELISA (T/B)", "setting": "human plasma kallikrein [2]", "result": 5.5, "unit": "T/B"}]}
{"binder": "B4", "values": [{"measurement": "ELISA (T/B)", "setting": "human plasma kallikrein [2]", "result": 10.9, "unit": "T/B"}]}
{"binder": "B5", "values": [{"measurement": "% inhibition at 10 nM", "setting": "human plasma kallikrein [3]", "result": 67.6, "unit": "%"}]}
{"binder": "B6", "values": [{"measurement": "% inhibition at 10 nM", "setting": "human plasma kallikrein [3]", "result": 13.8, "unit": "%"}]}
{"binder": "B7", "values": [{"measurement": "% inhibition at 10 nM", "setting": "human plasma kallikrein [3]", "result": 15.7, "unit": "%"}]}
{"binder": "B8", "values": [{"measurement": "fold increase of Ki,app against the wild type catalytic domain", "setting": "[4]", "result": "~5", "unit": "fold"}]}
